Source: US8119572B2, “Methods for determining protein binding specificity using peptide libraries” (Wisconsin Alumni Research Foundation, priority 2005, dated 2012)
No end group written: not given here.

Biological target: T1, SIRT1 (Homo sapiens, UniProt Q96EB6)
T1 construct: made in house
T1 sequence (Q96EB6 1-747): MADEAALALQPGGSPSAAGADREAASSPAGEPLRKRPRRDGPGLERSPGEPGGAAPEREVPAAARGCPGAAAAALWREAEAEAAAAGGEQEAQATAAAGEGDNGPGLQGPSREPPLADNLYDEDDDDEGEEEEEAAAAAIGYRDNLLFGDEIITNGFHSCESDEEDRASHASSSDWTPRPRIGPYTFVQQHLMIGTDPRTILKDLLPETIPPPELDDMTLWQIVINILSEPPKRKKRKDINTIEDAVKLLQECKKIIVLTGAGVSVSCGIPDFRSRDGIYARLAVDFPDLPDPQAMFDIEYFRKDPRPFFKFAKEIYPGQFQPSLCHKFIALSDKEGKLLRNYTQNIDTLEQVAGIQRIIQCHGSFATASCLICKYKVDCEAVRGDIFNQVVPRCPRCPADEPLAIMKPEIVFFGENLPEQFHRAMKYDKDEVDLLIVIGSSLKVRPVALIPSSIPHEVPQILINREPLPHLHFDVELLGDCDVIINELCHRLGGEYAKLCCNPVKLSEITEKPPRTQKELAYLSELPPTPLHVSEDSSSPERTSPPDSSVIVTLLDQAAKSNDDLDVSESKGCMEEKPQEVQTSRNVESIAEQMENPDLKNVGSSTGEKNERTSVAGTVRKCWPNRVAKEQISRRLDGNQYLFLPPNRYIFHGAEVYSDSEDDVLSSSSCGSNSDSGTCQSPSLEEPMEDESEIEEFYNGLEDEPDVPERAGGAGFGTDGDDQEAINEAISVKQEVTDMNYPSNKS
Experiment: Radioactive TLC-based [32P]-NAD+ in-solution kinetic analysis of resynthesized hits and non-hits
Type: biochemical
Conditions: for fold difference in catalytic activity in favor over WP(AcK)QQ: compared with WP(AcK)QQ, Table 3 values
Procedure: All solution phase Sir2 assays were carried out at 25° C. in 50 mM Tris.HCl. Reactions were done in 50-100 μL with 0.1-1.5 μM enzyme, 0.1-1.2 mM NAD^+, 0.5-1000 μM peptide and 1 mM DTT. Reaction mixtures were quenched with TFA to a final concentration of 1% after 5-10 min and nicotinamide levels were quantitated by HPLC at 264 nm.
Alternatively, [^32P]-NAD^+ (10 mCi/mL) was used in assays and quenched reaction mixtures were spotted on a silica TLC plate and run in a chamber containing 60% ethanol and 40 2.5 mM ammonium acetate for 3-4 hours. Levels of ^32P-OAADPr and ^32P-NAD^+ were then quantitated by phosphorimaging and the fraction turnover was calculated. Saturation curves were done at varying concentrations of peptide while holding that of NAD^+ constant. Time points were chosen such that product formation never exceeded 20% conversion and data were plotted as rate (s^−1) vs. peptide concentration. Plots were fitted to the Michaelis-Menten equation, v=[(kcat/Km)[S]]/(1+[S]/Km) using Kaleidagraph software (Reading, Pa.) to extract Km and kcat/Km.
To validate the results of the library screen, select hits and non-hits were resynthesized and subjected to in-solution kinetic analysis (Table 3). A radioactive TLC-based assay was employed with subsaturating levels of [^32P]-NAD^+ to determine the relative catalytic efficiencies (Jackson et al., 2003, J. Biol. Chem. 278: 50985-50998). In addition, two “consensus” peptides containing residues occurring with the highest and lowest frequency at each position, independent of context, were analyzed. For comparison, a 5-mer comprised of a sequence corresponding to a known site for p53 deacetylation by SIRT1 was assayed (Table 3).
In Table 3, efficiencies (^x=average) were obtained by fitting the data from [^32P]-NAD^+ assays to the modified Michaelis-Menten equation, v=[(kcat/Km)[S]]/(1+[S]/Km). […] Catalytic efficiencies of peptides containing the residues of the highest^b/lowest^c frequency at each position and the sequence relevant to p53 deacetylation in vivo^d are shown for comparison.

| catalytic activity, comparison of hits and non-hits in words (in-solution kinetic analysis) | fold difference in catalytic activity in favor over WP(AcK)QQ | Substance |
| --- | --- | --- |
| comparable to those of a few of the hits |  | AY(AcK)EV (Ac-AYK(Ac)EV) [resynthesized select non-hit] |
|  | 18 fold | QP(AcK)QI (Ac-QPK(Ac)QI) [resynthesized select hit of SIRT1 library screen] |
|  | seven | WH(AcK)QQ (Ac-WHK(Ac)QQ) |
